Measurements: US20250302761A1 (INSTITUT NATIONAL DE LA SANT ET DE LA RECHERCHE M DICALE, published 2025)

Target: FKBP2-RFP-CD63
Assay: cell-based or functional assay

B1: FRB-NanoLuciferase-HA (other)
chain: ILWHEMWHEGLEEASRLYFGERNVKGMFEVLEPLHAMMERGPQTLKETSFNQAYGRDLMEAQEWCRKYMKSGNVKDLLQAWDLYYHVFRRISK
Q: Which “EV NLuc specific activity, normalized on the 'No Drug' condition” value does the source give for B1 here?
A: 3.5 fold

Q: What about the “NLuc activity in Fraction 7 of the floatation assay, 'Drug' against 'No Drug'” value of the same binder?
A: 4 fold
